From publication PMC9122090 (Structure (London, England : 1993), 2021) come the findings set out here.

By Kd is commonly meant the constant that tells how readily two partners part at equilibrium. A high value points to weaker binding.

Assay [1] addresses T1, FHOD1-N (human FHOD1 residues 1–339), wild type (human, UniProt Q9Y613 1-339).
T1 sequence (looked up): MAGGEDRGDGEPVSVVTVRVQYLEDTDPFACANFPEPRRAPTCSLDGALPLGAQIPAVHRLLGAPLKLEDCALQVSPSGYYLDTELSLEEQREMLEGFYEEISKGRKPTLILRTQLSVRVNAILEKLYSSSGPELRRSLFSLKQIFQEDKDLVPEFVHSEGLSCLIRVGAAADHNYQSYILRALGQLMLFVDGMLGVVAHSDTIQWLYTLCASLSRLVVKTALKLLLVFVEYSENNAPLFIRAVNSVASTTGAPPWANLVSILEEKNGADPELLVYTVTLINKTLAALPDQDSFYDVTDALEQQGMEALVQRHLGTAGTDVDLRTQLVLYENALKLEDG
The experiment in a line: BLI. In general terms: Biolayer interferometry detects binding as a change in optical thickness at a sensor tip.

For assay [2], the target named is T1, FHOD1-N (human FHOD1 residues 1–339), …. Briefly: SEC.
For assay [3] the target is unchanged. Briefly: SEC. The source holds these as a separate data set.
Assay [4] addresses T2, Nes2G SR11–12-FHOD1-N complex (human, UniProt Q9Y613 1-339; Q8WXH0 1425-1649).
T2 sequence (looked up) 1: T1 sequence (looked up)
T2 sequence (looked up) 2: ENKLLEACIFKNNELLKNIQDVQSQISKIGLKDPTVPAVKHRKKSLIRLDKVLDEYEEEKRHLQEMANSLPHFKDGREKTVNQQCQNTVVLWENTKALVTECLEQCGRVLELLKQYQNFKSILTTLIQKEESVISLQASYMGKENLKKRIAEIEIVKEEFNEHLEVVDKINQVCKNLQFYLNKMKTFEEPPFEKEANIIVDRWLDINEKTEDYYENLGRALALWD
The experiment in a line: SEC. For orientation: SEC sorts molecules by how far they enter the pores of the column.

B1: N-terminally AVI-tagged, biotinylated Nes1G SR17–18 (residues 1976–2200) (domain or fragment, human, UniProt Q8NF91 1976-2200, looked up)
chain: LAVLKKAFQDQKEELLKSIEDIEERTDKERLKEPTRQALQQRLRVFNQLEDELNSHEHELCWLKDKAKQIAQKDVAFAPEVDREINRLEVTWDDTKRLIHENQGQCCGLIDLMREYQNLKSAVSKVLENASSVIVTRTTIKDQEDLKWAFSKHETAKNKMNYKQKDLDNFTSKGKHLLSELKKIHSSDFSLVKTDMESTVDKWLDVSEKLEENMDRLRVSLSIWD
modifications: biotin on the AVI sequence
Take B1: in assay [1], the Kd stood at 85 nM. This lies in the double-digit nanomolar range.

B2: Nes1G SR17–18 (human nesprin-1 giant residues 1976–2200) (domain or fragment, UniProt Q8NF91-1 1976-2200, looked up)
chain: B1 chain
On to B2, for which, in assay [2], the binding result is given as “binds”.

B3: N-terminally AVI-tagged, biotinylated Nes2G SR11–12 (residues 1425–1649) (domain or fragment, human, UniProt Q8WXH0 1425-1649, looked up)
chain: T2 sequence (looked up) 2
modifications: biotin on the AVI sequence
Turning to B3, the Kd in assay [1] stood at 375 nM.

B4: Nes2G SR11–12 (human nesprin-2 giant residues 1425–1649) (domain or fragment, UniProt Q8WXH0-1 1425-1649, looked up)
chain: T2 sequence (looked up) 2
On to B4, for which, in assay [2], the binding result is recorded as “binds”.

B5: Nes1G SR18 (human nesprin-1 giant residues 2076–2200) (domain or fragment, UniProt Q8NF91-1 2076-2200, looked up)
chain: ENQGQCCGLIDLMREYQNLKSAVSKVLENASSVIVTRTTIKDQEDLKWAFSKHETAKNKMNYKQKDLDNFTSKGKHLLSELKKIHSSDFSLVKTDMESTVDKWLDVSEKLEENMDRLRVSLSIWD
B5: the binding result in assay [2] was “binds”.

B6: N-terminally AVI-tagged, biotinylated Nes1G SR18 (residues 2076–2200) (domain or fragment, human, UniProt Q8NF91 2076-2200, looked up)
chain: B5 chain
modifications: biotin on the AVI sequence
As to B6, the binding result in assay [1] is listed as “binds”.

B7: FHOD1 DAD domain (residues 1052–1164), released from MBP-DAD by 3C protease (domain or fragment, human, UniProt Q9Y613 1052-1164, looked up)
chain: SMKSLLTSRPEDTTHNRRSRGMVQSSSPIMPTVGPSTASPEEPPGSSLPSDTSDEIMDLLVQSVTKSSPRALAARERKRSRGNRKSLRRTLKSGLGDDLVQALGLSKGPGLEV
For B7, the binding result in assay [3] and in assay [4] was “binds” in each case.
